In patent US20110097317A1:

Target: thioredoxin (TRX), endogenous in bovine aortic endothelial cells (BAEC) (bovine) (UniProt O97680)
Assay: cell-based or functional assay

Sequence of UniProt O97680 (O97680 2-105 limits assumed): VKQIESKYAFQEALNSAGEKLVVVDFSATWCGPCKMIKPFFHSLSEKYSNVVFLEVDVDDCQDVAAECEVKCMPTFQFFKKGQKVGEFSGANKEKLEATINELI

- TNF-mediated activation of JNK (phospho-specific immunoblot) in BAEC over-expressing TXNIP: 33%
- TNF-mediated activation of p38 (phospho-specific immunoblot) in BAEC over-expressing TXNIP: 23%
Substance: Thioredoxin interacting protein (TXNIP) over-expressed from pcDNA3.1-TXNIP in BAEC
